How the values were obtained:
[1] = tested on: Mgat1 ZFN left monomer (CompoZr, FokI fusion) (synthetic construct); assay: cell_activity; details: Cel-I assay day 3 in CHO cells (9.6% day 10); value is for ZFN pair; spacer ccagca
[2] = tested on: Mgat1 ZFN right monomer (CompoZr, FokI fusion) (synthetic construct); assay: cell_activity; details: Cel-I assay day 3 in CHO cells (9.6% day 10); value is for ZFN pair; spacer ccagca

Sequence | activity [1] [%] | activity [2] [%]
AACAAGTTCAAGTTC (double strand) [CHO Mgat1 ZFN left half-site] | 8.8 | –
GCTGTGGTAGTGGAGGAC (double strand) [CHO Mgat1 ZFN right half-site] | – | 8.8
